In the supplement of paper PMC7125110:
± gives the standard error. This sample holds only a part of the variants without activity.

B1: glmS ribozyme (parent)
chain: AUAAAAGCGCCAGAACUACAGAAAUGUAGUUGACGAGGAGGAGGUUUAUCGAAUUUUCGGCGGAUGCCUCCAAA

How the values were obtained:
Conditions in all cases: with glucosamine-6-phosphate
glucosamine-6-phosphate [1] = variants of: B1; experiment: self-cleavage kobs at 40 uM GlcN6P; higher = faster cleavage; RNA array
Procedure, shortened: (§1)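 Glucosamine-6-phosphate (40 μM to 10 mM) in HEPES/KCl/Mg(OAc)2 buffer was flowed over sequenced MiSeq chips, and tiles were imaged over ~14 h. Barcoded ribozyme variants there had been transcribed in situ by E. coli RNA polymerase and were tracked through a hybridised Cy3 probe at 37 °C. One- or two-exponential decay fits to per-tile medians, normalised to baseline and to non-cleaving reference variants, gave kobs. kcat and KM came from weighted Michaelis–Menten fits across concentrations.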

glucosamine-6-phosphate [2] = variants of: B1; experiment: self-cleavage kobs at 10000 uM GlcN6P; higher = faster cleavage; RNA array
Procedure, shortened: as §1

glucosamine-6-phosphate [3] = variants of: B1; experiment: self-cleavage kobs at 160 uM GlcN6P; higher = faster cleavage; RNA array
Procedure, shortened: as §1

glucosamine-6-phosphate [4] = variants of: B1; experiment: self-cleavage kobs at 640 uM GlcN6P; higher = faster cleavage; RNA array
Procedure, shortened: as §1

glucosamine-6-phosphate [5] = variants of: B1; experiment: self-cleavage kobs at 2500 uM GlcN6P; higher = faster cleavage; RNA array
Procedure, shortened: as §1

Variant | self-cleavage kobs at 40 uM GlcN6P (glucosamine-6-phosphate [1]) [s⁻¹] | self-cleavage kobs at 10000 uM GlcN6P (glucosamine-6-phosphate [2]) [s⁻¹] | self-cleavage kobs at 160 uM GlcN6P (glucosamine-6-phosphate [3]) [s⁻¹] | self-cleavage kobs at 640 uM GlcN6P (glucosamine-6-phosphate [4]) [s⁻¹] | self-cleavage kobs at 2500 uM GlcN6P (glucosamine-6-phosphate [5]) [s⁻¹]
A15C G37A U57G C67G | < 1e-05 | < 1e-05 | – | – | –
A15G G59C | < 1e-05 | – | < 1e-05 | < 1e-05 | –
C16G G44U | < 1e-05 | 2.26e-05 ± 1e-05 | < 1e-05 | – | –
A15G A64G | 0.000819 ± 0.00013 | 0.0604 ± 0.017 | 0.00196 ± 0.00048 | 0.0063 ± 0.0012 | 0.00698 ± 0.0018
A15U G60U | < 1e-05 | < 1e-05 | < 1e-05 | < 1e-05 | < 1e-05
A15U A36G U69G | 3.94e-05 ± 1.7e-05 | – | – | – | –
A15G G35U | < 1e-05 | < 1e-05 | < 1e-05 | – | < 1e-05
A15G G37C | < 1e-05 | 4.76e-05 ± 6.4e-06 | – | – | –
A15C G51A | < 1e-05 | < 1e-05 | < 1e-05 | – | –
C16A A52C | < 1e-05 | < 1e-05 | < 1e-05 | < 1e-05 | –
C16A G37C A48U U49C A52G G62C | < 1e-05 | < 1e-05 | – | – | –
C16A G40U A48U | < 1e-05 | < 1e-05 | – | – | –
A15G U54A C71A | 0.000174 ± 5.4e-05 | 0.00522 ± 0.0014 | – | – | –
A15C C50G G62U | 4.56e-05 ± 2.2e-05 | – | – | 6.39e-05 ± 2.8e-05 | 0.000111 ± 3.3e-05
A15U A36U G60A | < 1e-05 | – | – | – | –
C16A C34G | < 1e-05 | – | – | < 1e-05 | –
A15C A52C C70U C71G | < 1e-05 | – | – | – | –
A15C G37A G41C U69G | < 1e-05 | < 1e-05 | – | – | –
A15G U55A | 0.000962 ± 0.00014 | 0.0387 ± 0.0094 | 0.00144 ± 0.00025 | 0.0107 ± 0.0017 | –
C16A G29U U31C | 3.38e-05 ± 1.4e-05 | 0.000493 ± 0.00013 | – | – | –
A15U A42G G62U | < 1e-05 | < 1e-05 | – | – | < 1e-05
A15G G38U U47A C68G | 9.09e-05 ± 3.3e-05 | – | – | – | –
C16A U30A A33G U55C | < 1e-05 | – | – | – | –
A14U G60U | < 1e-05 | < 1e-05 | < 1e-05 | < 1e-05 | < 1e-05
